# Data as given in publication PMC6486591, “Cryo-EM structures of the pore-forming A subunit from the Yersinia entomophaga ABC toxin” (Nature Communications, 2019).
# Key:
# [1] = target: T1, YenA2 (Yersinia entomophaga, UniProt B6A878 1-1364); test: cryo-EM structure; YenTcA soluble pre-pore form, single-particle cryo-EM, 4.4 Å average resolution, C5 symmetry; 0.1 mg/mL in 25 mM Tris, 150 mM NaCl, pH 7.5, with 10 mM NDSB-195; conditions: both partners purified
# T1 construct: YenA2, TcA-like protein of Yersinia entomophaga (156 kDa), subunit of YenTcA; UniProt entry name B6A878_9GAMM is printed; holds the shell domain (1-165; 559-812), neuraminidase-like domain (166-332; Natively expressed, no fusion tags; Five copies stand in the YenTcA complex and form the pentameric pore; also called TcA-like protein YenA2
# [2] = target: T2, YenA1 (Yersinia entomophaga, UniProt B6A877 1-1164); test: as above; conditions: both partners purified
# T2 construct: YenA1, TcA-like protein of Yersinia entomophaga (130 kDa), subunit of YenTcA; residues 45-304 and 584-1164 are resolved in the alpha-helical shell, residues 305-583 are an unmodelled domain insertion; Natively expressed, no fusion tags; Five copies stand in the YenTcA complex; also called TcA-like protein YenA1
# T2 sequence (B6A877 whole entry, the tested form may be a part): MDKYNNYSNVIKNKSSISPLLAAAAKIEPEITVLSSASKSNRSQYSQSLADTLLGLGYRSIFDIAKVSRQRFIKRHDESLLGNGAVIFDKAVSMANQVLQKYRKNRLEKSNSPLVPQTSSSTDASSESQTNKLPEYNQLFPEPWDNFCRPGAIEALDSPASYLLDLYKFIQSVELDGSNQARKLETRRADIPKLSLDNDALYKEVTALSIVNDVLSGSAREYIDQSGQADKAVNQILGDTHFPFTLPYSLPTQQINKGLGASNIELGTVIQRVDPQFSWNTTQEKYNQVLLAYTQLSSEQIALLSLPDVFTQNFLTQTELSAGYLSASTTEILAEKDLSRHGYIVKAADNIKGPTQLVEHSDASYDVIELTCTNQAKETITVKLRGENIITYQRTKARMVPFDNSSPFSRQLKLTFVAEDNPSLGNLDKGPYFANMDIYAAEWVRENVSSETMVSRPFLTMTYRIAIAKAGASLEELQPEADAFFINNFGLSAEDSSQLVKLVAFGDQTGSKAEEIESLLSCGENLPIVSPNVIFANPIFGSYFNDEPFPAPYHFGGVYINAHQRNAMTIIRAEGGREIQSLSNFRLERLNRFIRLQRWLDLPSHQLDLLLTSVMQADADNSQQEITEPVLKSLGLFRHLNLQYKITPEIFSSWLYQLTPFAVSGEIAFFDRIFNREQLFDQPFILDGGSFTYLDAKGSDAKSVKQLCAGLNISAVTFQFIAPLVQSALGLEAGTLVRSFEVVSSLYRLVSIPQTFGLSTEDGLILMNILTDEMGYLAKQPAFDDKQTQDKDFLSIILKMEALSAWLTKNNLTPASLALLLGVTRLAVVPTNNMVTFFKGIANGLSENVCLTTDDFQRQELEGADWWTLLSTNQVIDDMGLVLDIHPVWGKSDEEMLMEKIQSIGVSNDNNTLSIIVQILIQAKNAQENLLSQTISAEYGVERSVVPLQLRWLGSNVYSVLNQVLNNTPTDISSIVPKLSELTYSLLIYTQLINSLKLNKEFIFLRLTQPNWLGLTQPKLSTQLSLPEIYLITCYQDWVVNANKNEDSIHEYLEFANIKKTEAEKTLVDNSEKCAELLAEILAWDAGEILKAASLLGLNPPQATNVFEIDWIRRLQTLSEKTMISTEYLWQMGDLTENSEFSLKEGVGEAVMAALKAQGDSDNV
# T1 sequence (B6A878 whole entry, the tested form may be a part): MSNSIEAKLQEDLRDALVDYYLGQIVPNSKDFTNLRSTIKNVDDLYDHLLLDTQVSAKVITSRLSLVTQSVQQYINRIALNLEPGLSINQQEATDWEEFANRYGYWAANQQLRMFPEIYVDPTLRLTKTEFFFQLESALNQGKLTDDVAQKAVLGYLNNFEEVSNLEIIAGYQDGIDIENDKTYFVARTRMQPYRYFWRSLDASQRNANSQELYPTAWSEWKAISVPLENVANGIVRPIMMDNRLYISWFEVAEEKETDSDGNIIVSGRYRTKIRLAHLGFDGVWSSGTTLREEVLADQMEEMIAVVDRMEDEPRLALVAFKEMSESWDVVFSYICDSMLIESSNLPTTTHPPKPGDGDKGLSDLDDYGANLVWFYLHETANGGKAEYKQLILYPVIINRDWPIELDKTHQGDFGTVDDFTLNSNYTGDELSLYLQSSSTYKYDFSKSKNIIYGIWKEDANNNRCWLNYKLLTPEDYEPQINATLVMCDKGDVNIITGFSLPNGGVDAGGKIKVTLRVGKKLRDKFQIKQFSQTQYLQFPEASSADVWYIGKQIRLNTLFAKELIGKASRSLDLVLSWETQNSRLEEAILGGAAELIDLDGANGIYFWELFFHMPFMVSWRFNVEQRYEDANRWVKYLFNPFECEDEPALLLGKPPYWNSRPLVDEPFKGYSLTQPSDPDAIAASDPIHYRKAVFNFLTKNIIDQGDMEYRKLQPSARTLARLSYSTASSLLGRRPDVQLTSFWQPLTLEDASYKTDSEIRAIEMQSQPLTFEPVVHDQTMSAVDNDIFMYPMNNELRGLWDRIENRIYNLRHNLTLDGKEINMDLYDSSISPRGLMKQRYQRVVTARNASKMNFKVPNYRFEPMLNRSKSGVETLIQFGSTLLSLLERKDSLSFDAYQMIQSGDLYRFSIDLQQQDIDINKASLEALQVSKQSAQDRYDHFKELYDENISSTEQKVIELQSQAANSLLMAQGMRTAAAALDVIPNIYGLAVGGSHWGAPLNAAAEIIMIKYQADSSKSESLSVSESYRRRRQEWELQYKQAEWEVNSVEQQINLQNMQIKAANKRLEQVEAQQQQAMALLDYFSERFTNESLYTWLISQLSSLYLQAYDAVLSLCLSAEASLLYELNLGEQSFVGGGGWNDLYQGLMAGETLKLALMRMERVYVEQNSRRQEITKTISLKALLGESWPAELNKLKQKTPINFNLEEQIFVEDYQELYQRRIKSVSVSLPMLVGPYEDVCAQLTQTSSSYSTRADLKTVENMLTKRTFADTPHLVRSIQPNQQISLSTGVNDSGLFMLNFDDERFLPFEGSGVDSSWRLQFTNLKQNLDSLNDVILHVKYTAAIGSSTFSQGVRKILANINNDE
Binder,binding result [1],binding result [2]
"Chi1 (enzyme, Chi1, endochitinase of Yersinia entomophaga, subunit of YenTcA; earlier crystal structure PDB 3oa5 was fitted as a rigid body; Natively expressed, no fusion tags; Five copies stand in YenTcA; Chi1 is not in the deposited atomic model 6ogd; also called endochitinase Chi1; Chi1 subunit) MEKEEKSNLIYDKDPGYVWDNKNECEGAAEETYQELNYEPSISADKLTWTPTRLAKTVFNTYEDDDDFNVLCYFTDWSQYDPRIINKEIRDTGGRSADILRLNTPDGRPFKRLIYSFGGLIGDKKYSADGNASIAVRLGVATDPDDAIANHKGKTIPVDPDGAVLASINCGFTKWEAGDANERYNQEKAKGLLGGFRLLHEADKELEFSLSIGGWSMSGLFSEIAKDEILRTNFVEGIKDFFQRFPMFSHLDIDWEYPGSIGAGNPNSPDDGANFAILIQQITDAKISNLKGISIASSADPAKIDAANIPALMDAGVTGINLMTYDFFTLGDGKLSHHTNIYRDPSDVYSKYSIDDAVTHLIDEKKVDPKAIFIGYAGYTRNAKNATITTSIPSEEALKGTYTDANQTLGSFEYSVLEWTDIICHYMDFEKGEGRNGYKLVHDKVAKADYLYSEATKVFISLDTPRSVRDKGRYVKDKGLGGLFIWSGDQDNGILTNAAHEGLKRRIKNKVIDMTPFYLDSDEELPTYTEPAEPQCEACNIK",binds,–
"Chi2 (enzyme, Chi2, endochitinase of Yersinia entomophaga, subunit of YenTcA; N-terminal domain residues 1-91 (unmodelled), chitinase domain residues 92-632 (earlier crystal structure PDB 4dws); Natively expressed, no fusion tags; Five copies stand in the YenTcA complex; also called endochitinase Chi2; Chi2 subunit) MVNKYTYTSSKAMSDISDVIGEPLAAWDSQVGGRVFNVIFDGKVYTNTYWVERWQVPGIGSSDGNPHNAWKFVRAATADEINKIGNPTTADVKPTENIPSPILVEDKYTEETYSRPDVNFKEDGSQGNLSYTATRVCAPMYNHYVGDKTKPKLSAYITDWCQYDARLDGGGSKEEERGRGFDLATLMQNPATYDRLIFSFLGICGDIGNKSKKVQEVWDGWNAQAPSLGLPQIGKGHIVPLDPYGDLGTARNVGLPPESADTSIESGTFLPYYQQNRAAGLLGGLRELQKKAHAMGHKLDLAFSIGGWSLSSYFSALAENPDERRVFVASVVDFFVRFPMFSCVDIDWEYPGGGGDEGNISSDKDGENYVLLIKELRSALDSRFGYSNRKEISIACSGVKAKLKKSNIDQLVANGLDNIYLMSYDFFGTIWADYIGHHTNLYSPKDPGEQELFDLSAEAAIDYLHNELGIPMEKIHLGYANYGRSAVGGDLTTRQYTKNGPALGTMENGAPEFFDIVKNYMDAEHSLSMGKNGFVLMTDTNADADFLFSEAKGHFISLDTPRTVKQKGEYAAKNKLGGVFSWSGDQDCGLLANAAREGLGYVADSNQETIDMGPLYNPGKEIYLKSISEIKSK",–,binds
